{
  "source": "paper PMC11807975",
  "about": "“The secreted host-cell protein clusterin interacts with PmpD and promotes Chlamydia trachomatis infection” (Frontiers in Cellular and Infection Microbiology, 2024)",
  "target": "the molecule itself",
  "assay": "native gel or EMSA; Blue Native-PAGE (Native PAGE Novex 3-12% Bis-Tris) of the SEC elution fraction of rD72 at 1.4 ml; Coomassie stain",
  "note": "“And” between values parts separate entries of the source, which are not always exact repeats. Identical values can stand only once.",
  "data": [
    {"protein": "recombinant D72 (rD72), proteolytically processed fragment of Chlamydia trachomatis serovar E PmpD, residues 68-761, N-terminal 10x His-Tag (domain or fragment, In solution a high-molecular-weight oligomer (720-1048 kDa by Blue Native-PAGE, calculated 10- to 15-mer); also called rPmpD; His-PmpD; source: E. coli Origami, purified (Ni-NTA agarose, dialysed in PBS); not shown: 10xHis, N-terminal, kept; copies: 10-15) DSQAEGQYRLIVGDPSSFQEKDADTLPGKVEQSTLFSVTNPVVFQGVDQQDQVSSQGLICSFTSSNLDSPRDGESFLGIAFVGDSSKAGITLTDVKASLSGAALYSTEDLIFEKIKGGLEFASCSSLEQGGACAAQSILIHDCQGLQVKHCTTAVNAEGSSANDHLGFGGGAFFVTGSLSGEKSLYMPAGDMVVANCDGAISFEGNSANFANGGAIAASGKVLFVANDKKTSFIENRALSGGAIAASSDIAFQNCAELVFKGNCAIGTEDKGSLGGGAISSLGTVLLQGNHGITCDKNESASQGGAIFGKNCQISDNEGPVVFRDSTACLGGGAIAAQEIVSIQNNQAGISFEGGKASFGGGIACGSFSSAGGASVLGTIDISKNLGAISFSRTLCTTSDLGQMEYQGGGALFGENISLSENAGVLTFKDNIVKTFASNGKILGGGAILATGKVEITNNSEGISFTGNARAPQALPTQEEFPLFSKKEGRPLSSGYSGGGAILGREVAILHNAAVVFEQNRLQCSEEEATLLGCCGGGAVHGMDSTSIVGNSSVRFGNNYAMGQGVSGGALLSKTVQLAGNGSVDFSRNIASLGGGALQASEGNCELVDNGYVLFRDNRGRVYGGAISCLRGDVVISGNKGRVEFKDNIATRLYVEETVEKVEEVEPAPEQKDNNELSFLGRAEQSFITAANQA", "values": [
      {"measurement": "stoichiometry N", "result": "10 and 15"}
    ]}
  ]
}
